{"source": "patent US20100041596A1", "about": "(published 2010)", "key": {"[1]": {"target": "T1, p60ΔCD-GFP-HA (UniProt P42212 1-238 = GFP, limits assumed)", "T1 construct": "GFP introduced in-frame into p60ΔCD-HA; p60 limits deduced as for p60ΔCD-HA; also called chimeric p60 receptor with the cytoplasmic domain replaced by GFP", "experiment": "co-immunoprecipitation in 293T transient transfections", "description": "The PCR product was digested with BamHI and EcoRI and cloned into pcDNA3. The PCR fragments containing the receptor fragments were then introduced into this plasmid using the EcoRI and XhoI sites. For the GFP/CFP/YFP chimeras, the fragments were amplified by PCR and introduced in-frame into the XhoI and XbaI sites of p60ΔCD-HA. 293T cells were transfected with Fugene 6 (Boehringer Mannheim) as per manufacturer's protocol. Cells were lysed in 150 mM NaCl, 20 mM Tris.Cl [pH 7.5], 1 mM EDTA, 30 mM NaF, 2 mM β-glycerophosphate, 1 mM sodium orthovanadate, 5 mM iodoacetamide, 2 mM dithiothreitol (DTT), 1% TRITON X-100 and protease inhibitors (Boehringer Mannheim). After pre-clearing with protein G agarose beads (Boehringer Mannheim) and normal mouse IgG, proteins were immunoprecipitated from the lysates with […] anti-GFP and protein G agarose beads. Immune complexes were washed twice with lysis buffer containing 0.5 M NaCl and then three times with regular lysis buffer. Immune-complexes were resolved on Tris/Glycine gels (Novex)."}, "[2]": {"target": "T2, TNFα, biotinylated form (human, UniProt P01375 77-233, biotinylated)", "T2 construct": "also called biotinylated human TNF-α; Bt-TNF-α", "T2 sequence (P01375 77-233 limits assumed)": "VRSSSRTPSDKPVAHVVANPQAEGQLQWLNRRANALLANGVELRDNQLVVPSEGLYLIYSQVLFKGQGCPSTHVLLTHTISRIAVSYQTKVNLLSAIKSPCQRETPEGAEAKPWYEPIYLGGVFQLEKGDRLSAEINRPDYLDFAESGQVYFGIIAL", "experiment": "biotinylated TNFα staining normalized to HA staining"}}, "data": [{"binder": "p60ΔCD-HA K32A (receptor, not shown: small tags and cut ends, Mutant of p60ΔCD-HA; numbers count on mature p60) LVPHLGDREKRDSVCPQGKYIHPQNNSICCTACHKGTYLYNDCPGPGQDTDCRECESGSFTASENHLRHCLSCSKCRKEMGQVEISSCTVDRDTVCGCRKNQYRHYWSENLFQCFNCSLCLNGTVHLSCQEKQNTVCTCHAGFFLRENECVSCSNCKKSLECTKLCLPQIENVKGTEDSGTTVLLPLVIFFGLCLLSLLFIGLMYRYQRWK", "values": [{"measurement": "binding result", "setting": "[1]", "value": "no binding"}, {"measurement": "binding result", "setting": "[2]", "value": "no binding"}]}]}
